Here are results for three substances from patent US20160289305A1.

Experiment [1] has as its target JR-CSF gp120 N276A (HIV-1) (UniProt P20871). The experiment is described as follows: cell-based or functional assay.
The next experiment addresses ΔRSC3. As to the kind of experiment: method not given.
For experiment [2], the target named is JR-CSF gp120 D279A (HIV-1) (UniProt P20871). As to the kind of experiment: cell-based or functional assay.

Some results are limits rather than exact numbers.

VRC01 (antibody) yielded a neutralization potency, JR-CSF pseudovirus in experiment [1] of 4 fold.
Turning to VRC-PG04b (antibody), the fold less binding than to RSC3 with ΔRSC3 was over 100 fold.
VRC-PG-04 (antibody) had a neutralization potency compared to wildtype, JRCSF pseudovirus entry in experiment [2] of under 10%.
